In PMC3544828:

Tests used:
[1] = biological target: T1, CcpA (Staphylococcus aureus COL) (UniProt Q5HF38); experiment: EMSA; conditions: Room temperature, 15 min, 250 fmol each of specific and non-specific probe; protein stock in 10 mM Tris-HCl pH 7.5, 100 mM NaCl, 10% glycerol (binding buffer …)
T1 sequence: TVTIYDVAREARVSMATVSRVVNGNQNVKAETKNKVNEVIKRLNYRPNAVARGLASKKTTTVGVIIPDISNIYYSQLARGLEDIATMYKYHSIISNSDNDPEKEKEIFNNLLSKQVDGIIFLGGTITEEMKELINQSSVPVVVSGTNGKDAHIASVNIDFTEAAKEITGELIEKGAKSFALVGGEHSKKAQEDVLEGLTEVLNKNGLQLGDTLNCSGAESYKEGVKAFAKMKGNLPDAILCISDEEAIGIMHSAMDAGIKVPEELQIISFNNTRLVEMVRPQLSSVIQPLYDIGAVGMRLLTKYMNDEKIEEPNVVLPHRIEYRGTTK

[2] = biological target: T2, Rex (Staphylococcus aureus COL) (UniProt Q5HEF5); experiment: EMSA; conditions: Room temperature, 15 min, 250 fmol each of specific and non-specific probe; protein stock in 10 mM Tris-HCl pH 7.5, 100 mM NaCl, 10% glycerol (binding buffer …)
T2 sequence: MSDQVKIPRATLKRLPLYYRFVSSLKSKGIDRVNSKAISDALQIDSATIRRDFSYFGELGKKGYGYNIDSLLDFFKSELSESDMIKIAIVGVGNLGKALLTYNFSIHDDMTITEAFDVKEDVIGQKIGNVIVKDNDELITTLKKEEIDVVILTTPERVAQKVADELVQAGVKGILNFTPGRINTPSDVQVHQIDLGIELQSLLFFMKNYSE

Sequence	binding [1]	binding [2]
CTCCCCTTTTCATCATTTATAACTATTATACATGAAACATTATCCAAATAATTACATTAGTTTTCAAAGCAGATACTTTTCCACCAAAAAAGATGAAATAATCACTAAGTTTCATTAAATTTGTCTATTTTGAAAACCCTTACATTTATAATGACATAATTACTTAAATGATTACAAGCAAAAGAATTGATAATTTTACACTTAATC (double strand) [ProcD2 promoter fragment]	binds	–
CGCATAACTTAAAAGGTCATGTGTCATCCGCTTTTAAGTTTGTGATTTATTTCACATATAAAATGTAACATGCATTAAGTACTGGGTCAATATTAAATTGTGATTTATTTCACATTTTATTTTAATTTTTACACCTTTTTAATTTGTATACGATTACATCTTAGATGTCTTTAGTCTTCGTACTTCGCCAGTGATTATTTACAC (double strand) [Pldh1 promoter fragment]	no binding	binds
